In patent publication US20190112361A1 (Genentech, published 2019):

Target: T1, full-length human Tau (flTau) (human, UniProt P10636-8 1-441)
T1 construct: also called human Tau, longest isoform (441 aa)
Test: direct ELISA, flTau coated at 1 µg/mL, hybridoma supernatant dilutions
Excerpt: Serum-free supernatants were harvested from stable hybridomas. The supernatants containing antibodies of interest were then screened by ELISA assays to characterize antibody properties and select antibodies for further development. The ELISA assays were used to determine the following: binding to full-length human Tau (flTau; SignalChem, Canada), binding to hyperphosphorylated flTau (Genentech, USA), binding to oligomeric versus monomeric preparations of flTau, and binding to certain antibody Tau epitope(s).
Coating was done overnight in phosphate-buffered saline (PBS) at 4° C. Plates were washed thoroughly with 0.05% Tween-20/PBS and then blocked with 1% bovine serum albumin (BSA) in 0.05% Tween-20/PBS for 1 hr at 37° C. The antibody contained in the hybridoma supernatant was then added at the indicated dilutions, and incubated for 2 hrs at 37° C. after which the plates were washed as described previously.
For the direct ELISAs, an AP-conjugated anti-mouse IgG secondary antibody (Jackson ImmunoResearch Laboratories, United Kingdom) was added at 1/6000 dilution in 0.05% Tween-20/PBS for 2 hr at 37° C. After the final wash, plates were incubated with p-nitrophenyl phosphate disodium hexahydrate (pNPP; Sigma-Aldrich, Switzerland) phosphatase substrate solution, and read at 405 nm using an ELISA plate reader (Tecan, Switzerland). Results are expressed as optical densities (O.D.).

T1 sequence (P10636 other isoform, or with tags, fused parts or gaps limits assumed): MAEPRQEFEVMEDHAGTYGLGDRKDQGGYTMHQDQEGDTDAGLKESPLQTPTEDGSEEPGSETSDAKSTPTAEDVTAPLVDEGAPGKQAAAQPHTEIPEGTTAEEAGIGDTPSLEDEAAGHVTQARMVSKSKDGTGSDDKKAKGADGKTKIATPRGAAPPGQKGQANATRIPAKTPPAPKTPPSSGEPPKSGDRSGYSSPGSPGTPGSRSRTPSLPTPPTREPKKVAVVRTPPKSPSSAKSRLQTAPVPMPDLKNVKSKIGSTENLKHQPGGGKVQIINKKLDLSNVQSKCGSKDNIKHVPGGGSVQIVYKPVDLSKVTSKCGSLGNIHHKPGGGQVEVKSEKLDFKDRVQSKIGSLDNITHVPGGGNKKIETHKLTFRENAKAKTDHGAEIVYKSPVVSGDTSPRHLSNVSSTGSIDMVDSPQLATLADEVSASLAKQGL

binding result: binds
B1: 12A10-E8 (antibody, V domains shown)
VH: QIQLVQSGPELKKPGETVKISCKASGYTFTNYGMNWVKQAPGKGLKWMGWINMYTGEPTYGDDFKGRFVFSLETSVSTVYLQINNLKKEDTATFFCARGGRPDYWGQGTSVTVSS
VL: DVLMTQTPLSLPVSLGDQASISCRSSQSIVHSNGNTYLEWYLQKPGQSPKLLIYKVFNRFSGVPDRFSGSGSGTDFTLKINRVEAEDLGVYYCLQGSHVPYTFGGGTKLEIK
notes: hybridoma supernatant
